Test results published in US20190048340 (CRISPR Therapeutics AG, published 2019).

Molecular target: Cpf1 (FnCpf1, FTN_1397) wild type (Francisella novicida U112, UniProt A0Q7Q2 SEQ:1-1300)
Assay: EMSA; PAM YTN (TTA); 37 C
Conditions: tags: N-terminal 6xHis (pET-16b); label: 5'-32P; repeat hairpin

Cpf1 (FnCpf1, FTN_1397) wild type, sequence (A0Q7Q2 whole entry): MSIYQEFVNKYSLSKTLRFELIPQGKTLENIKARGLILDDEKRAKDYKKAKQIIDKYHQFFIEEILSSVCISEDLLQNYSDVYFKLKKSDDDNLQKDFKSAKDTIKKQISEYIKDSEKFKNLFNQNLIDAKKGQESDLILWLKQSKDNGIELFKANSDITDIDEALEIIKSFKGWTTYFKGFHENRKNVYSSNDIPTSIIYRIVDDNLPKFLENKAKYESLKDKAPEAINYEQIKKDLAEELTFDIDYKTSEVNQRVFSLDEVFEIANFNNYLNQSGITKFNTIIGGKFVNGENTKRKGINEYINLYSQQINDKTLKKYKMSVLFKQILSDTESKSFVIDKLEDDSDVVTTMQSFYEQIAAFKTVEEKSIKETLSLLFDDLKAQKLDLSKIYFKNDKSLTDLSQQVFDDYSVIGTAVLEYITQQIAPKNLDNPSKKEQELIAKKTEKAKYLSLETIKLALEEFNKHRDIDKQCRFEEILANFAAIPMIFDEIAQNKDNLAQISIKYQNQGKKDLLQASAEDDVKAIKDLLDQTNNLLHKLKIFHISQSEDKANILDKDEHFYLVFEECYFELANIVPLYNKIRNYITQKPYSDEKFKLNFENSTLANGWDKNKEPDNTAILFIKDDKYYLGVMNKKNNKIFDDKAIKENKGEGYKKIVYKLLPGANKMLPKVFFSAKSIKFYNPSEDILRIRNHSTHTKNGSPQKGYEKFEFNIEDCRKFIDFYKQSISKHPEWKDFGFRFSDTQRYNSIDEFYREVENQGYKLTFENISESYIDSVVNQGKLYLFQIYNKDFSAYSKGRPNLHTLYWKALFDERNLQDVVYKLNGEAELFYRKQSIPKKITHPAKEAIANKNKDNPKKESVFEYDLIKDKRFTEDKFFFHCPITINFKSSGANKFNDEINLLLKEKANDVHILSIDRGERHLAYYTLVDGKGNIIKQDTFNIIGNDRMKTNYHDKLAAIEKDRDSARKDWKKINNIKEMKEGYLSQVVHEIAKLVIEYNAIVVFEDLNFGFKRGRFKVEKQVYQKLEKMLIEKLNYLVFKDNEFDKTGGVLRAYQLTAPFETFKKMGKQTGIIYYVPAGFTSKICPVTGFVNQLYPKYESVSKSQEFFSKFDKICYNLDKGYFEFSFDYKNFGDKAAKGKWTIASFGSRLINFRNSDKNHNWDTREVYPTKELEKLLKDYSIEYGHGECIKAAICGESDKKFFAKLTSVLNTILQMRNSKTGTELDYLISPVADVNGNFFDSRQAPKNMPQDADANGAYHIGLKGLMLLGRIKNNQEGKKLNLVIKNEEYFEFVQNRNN

B1: crRNA-sp5 repeat-spacer full-length (RNA 4); ref is antisense T7 transcription template ; Psp5 oligonucleotide duplex (ssRNA ; dsDNA)
RNA: GGGUCUAAGAACUUUAAAUAAUUUCUACUGUUGUAGAUAGAUUAAAAGGUAAUUCUAUCUUGUUGAG
DNA 1: AGCTGTAGCAAATATTAATCATATAGAAGAAAGCTCAGATCTCAACAAGATAGAATTACCTTTTAATCTTAAATTATTATATCCAGAAACTATTGATGGTAATTTACTTATC
DNA 2: AGCTGATAAGTAAATTACCATCAATAGTTTCTGGATATAATAATTTAAGATTAAAAGGTAATTCTATCTTGTTGAGATCTGAGCTTTCTTCTATATGATTAATATTTGCTAC
B1 showed a Kd of 0.05 µM.
